What was measured:
[1] = target: T1, recombinant human full length CRMP1 (human, UniProt Q14194 1-572); assay: direct ELISA, recombinant human CRMP1-5 coated at 5 µg/mL
T1 construct: mature

[2] = target: T2, CRMP2 peptide 129 (VTPASSAKTSPAKQQ) (human); assay: overlapping peptide array
T2 construct: 15-mer spotted on a cellulose membrane array
T2 peptide: VTPASSAKTSPAKQQ

[3] = target: T3, CRMP2 peptide 128 (TPKTVTPASSAKTSP) (human); assay: overlapping peptide array
T3 construct: 15-mer spotted on a cellulose membrane array
T3 peptide: TPKTVTPASSAKTSP

[4] = target: T4, Peptide 4152961: VCEVSV(p)T509… (phosphothreonine at T509 (CRMP2 numbering)); assay: direct ELISA on coated peptide (Fig. 5)
T4 construct: also called CRMP2 peptide with phosphorylation at T509

[5] = target: T5, Peptide 4152960: …; assay: direct ELISA on coated peptide (Fig. 5)
T5 construct: also called non-phosphorylated CRMP2 peptide

[6] = target: T6, Peptide 4152963: …(p)S522PAKQQA (phosphoserine at S522 (CRMP2 numbering)); assay: direct ELISA on coated peptide (Fig. 5)
T6 construct: also called CRMP2 peptide with phosphorylation at S522

[7] = target: T7, CRMP2 peptide H-EVSVTPKTVTPASSAKTSPAKQQC-NH2 (C-terminal amide); assay: ELISA
T7 peptide: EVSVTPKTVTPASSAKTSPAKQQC

[8] = target: T8, CRMP2 peptide TVTPASSAKTSPAKQQAPPVRC-NH2 (C-terminal amide); assay: ELISA
T8 peptide: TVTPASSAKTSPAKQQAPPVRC

[9] = target: T9, pCRMP2 peptide H-TVTPASSAKT(pS)PAKQQAPPVRC-NH2 (phosphoserine at S522 (CRMP2 numbering); C-terminal amide); assay: ELISA
T9 construct: also called pCRMP2 peptide containing a single S522 phospho-site
T9 peptide: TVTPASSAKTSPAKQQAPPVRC

[10] = target: T10, pCRMP2 peptide H-EVSV(pT)PKTV(pT)PASSAKT(pS)PAKQQC-NH2 (phosphothreonine at T509 and T514, phosphoserine at S522 (CRMP2 numbering); C-terminal amide); assay: ELISA
T10 construct: also called pCRMP2 peptide containing three phospho-sites T509, T514 and S522
T10 peptide: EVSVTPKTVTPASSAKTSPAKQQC

T1 sequence (Q14194 whole entry): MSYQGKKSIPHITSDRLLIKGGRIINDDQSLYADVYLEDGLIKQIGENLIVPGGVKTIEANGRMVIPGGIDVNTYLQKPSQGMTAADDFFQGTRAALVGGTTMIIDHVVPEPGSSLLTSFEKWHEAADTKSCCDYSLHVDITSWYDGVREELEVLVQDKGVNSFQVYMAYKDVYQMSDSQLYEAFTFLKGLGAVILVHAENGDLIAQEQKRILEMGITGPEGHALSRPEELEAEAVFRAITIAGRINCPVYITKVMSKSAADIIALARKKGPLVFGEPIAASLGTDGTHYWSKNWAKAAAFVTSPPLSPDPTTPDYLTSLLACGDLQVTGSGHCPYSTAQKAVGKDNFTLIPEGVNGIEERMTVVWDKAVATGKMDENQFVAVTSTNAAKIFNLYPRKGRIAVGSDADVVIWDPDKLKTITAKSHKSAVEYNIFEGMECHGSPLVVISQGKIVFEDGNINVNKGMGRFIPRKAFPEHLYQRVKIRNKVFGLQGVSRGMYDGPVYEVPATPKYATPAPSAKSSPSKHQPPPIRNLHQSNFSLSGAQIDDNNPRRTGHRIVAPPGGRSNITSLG

- EC50 [1]: 69 nM
- binding result [2]: binds
- binding result [3]: binds
- binding result [4]: binds
- binding result [5]: binds
- binding result [6]: binds
- binding result [7]: binds
- binding result [8]: binds
- binding result [9]: binds
- binding result [10]: binds
B1: NI-504.3E7 (antibody, human IgG1, V domains shown)
VH: EVQLVETGGGFVQPGGSLQLSCAVSGFPYSGTSFHWVRQVSGKGLEWIGRIRSKSDNYETSYTESLKGRFIVSRDDSKNMVRLHLYSLRTEDTALYYCTTGIIVVDTSYLDHWGRGTLVTVSS
VL: SYELTQPPSASVSPGQTARITCSGAALPKKYAYWYQLKSGQAPVLVIYEDTKRPSGIPERFSGSSSGTLATLTINGALVEDEADYYCYSTDSSGDVWVFGGGTKLTVL
notes: VH_3E7 + VL_3E7
